Blank lines part the entries; values can stand above or below the binder they belong to.
Key:
[1] = target: the molecule itself; experiment: fluorescence cross-correlation spectroscopy (FCCS); in the cytoplasm of living yeast cells; first-named protein green (3myeGFP or 1myeGFP; eGFP for Don1), second red (3mCherry); self-interaction in diploid strains with one allele of each colour; apparent or effective KD (Kdeff) from single-cell measurements; only Kdeff values < 1000 nM are shown; values for self-interactions are upper limits
[2] = target: the molecule itself; experiment: fluorescence cross-correlation spectroscopy (FCCS); self-interaction: living diploid yeast cells with one allele fused to (3)myeGFP and one to (3)mCherry, cytoplasm; apparent (effective) KD, to be taken as the upper limit since complexes of one colour are not seen
Pan1 = target: T1, Pan1 (S. cerevisiae, UniProt P32521 1-1480); experiment: fluorescence cross-correlation spectroscopy (FCCS); in the cytoplasm of living yeast cells; first-named protein green (3myeGFP or 1myeGFP; eGFP for Don1), second red (3mCherry); self-interaction in diploid strains with one allele of each colour; apparent or effective KD (Kdeff) from single-cell measurements; only Kdeff values < 1000 nM are shown; values for self-interactions are upper limits; conditions: partners not purified
T1 construct: Pan1, S. cerevisiae; also called Pan1-1myeGFP; Pan1-3mCherry; source: chromosomally tagged at the endogenous locus, in the cytoplasm of living S. cerevisiae cells
T1 sequence (looked up): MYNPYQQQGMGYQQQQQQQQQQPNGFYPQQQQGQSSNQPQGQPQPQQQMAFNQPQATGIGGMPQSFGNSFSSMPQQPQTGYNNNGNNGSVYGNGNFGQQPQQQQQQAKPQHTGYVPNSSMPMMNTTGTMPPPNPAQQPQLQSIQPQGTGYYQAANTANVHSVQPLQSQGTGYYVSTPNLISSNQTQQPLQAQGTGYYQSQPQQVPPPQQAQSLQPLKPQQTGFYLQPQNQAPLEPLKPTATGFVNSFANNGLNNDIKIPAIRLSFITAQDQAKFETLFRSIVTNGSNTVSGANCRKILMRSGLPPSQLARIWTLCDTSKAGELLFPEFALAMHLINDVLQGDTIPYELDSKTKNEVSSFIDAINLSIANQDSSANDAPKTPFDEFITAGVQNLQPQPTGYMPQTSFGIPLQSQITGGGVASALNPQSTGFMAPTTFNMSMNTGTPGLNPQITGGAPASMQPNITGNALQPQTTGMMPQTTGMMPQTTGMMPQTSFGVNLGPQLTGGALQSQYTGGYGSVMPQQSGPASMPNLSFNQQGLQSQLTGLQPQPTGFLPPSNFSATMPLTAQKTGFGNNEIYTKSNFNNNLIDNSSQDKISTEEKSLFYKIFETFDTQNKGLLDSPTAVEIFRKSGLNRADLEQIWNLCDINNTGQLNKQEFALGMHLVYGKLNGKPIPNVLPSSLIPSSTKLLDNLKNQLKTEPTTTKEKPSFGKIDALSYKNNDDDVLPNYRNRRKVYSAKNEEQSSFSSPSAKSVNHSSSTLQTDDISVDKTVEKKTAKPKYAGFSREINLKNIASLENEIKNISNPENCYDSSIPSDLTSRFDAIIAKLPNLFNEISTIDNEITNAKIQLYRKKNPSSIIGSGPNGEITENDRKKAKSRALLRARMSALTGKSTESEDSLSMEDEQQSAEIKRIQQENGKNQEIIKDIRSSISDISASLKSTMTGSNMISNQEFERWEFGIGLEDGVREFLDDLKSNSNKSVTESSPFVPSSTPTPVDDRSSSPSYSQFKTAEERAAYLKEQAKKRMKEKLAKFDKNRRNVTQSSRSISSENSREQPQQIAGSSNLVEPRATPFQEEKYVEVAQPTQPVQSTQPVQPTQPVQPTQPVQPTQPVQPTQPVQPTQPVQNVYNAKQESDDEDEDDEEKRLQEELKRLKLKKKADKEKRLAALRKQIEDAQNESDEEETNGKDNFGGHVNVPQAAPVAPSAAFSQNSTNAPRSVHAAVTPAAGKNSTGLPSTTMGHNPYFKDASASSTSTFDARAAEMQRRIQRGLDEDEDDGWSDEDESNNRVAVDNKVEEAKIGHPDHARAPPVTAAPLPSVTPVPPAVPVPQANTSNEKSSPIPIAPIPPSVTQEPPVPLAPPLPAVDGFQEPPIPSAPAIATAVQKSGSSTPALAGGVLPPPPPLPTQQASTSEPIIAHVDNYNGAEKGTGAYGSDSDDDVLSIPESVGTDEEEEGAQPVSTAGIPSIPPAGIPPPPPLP

[3] = target: the molecule itself; experiment: FCS molecular brightness (counts per particle per second); living yeast cells, cytoplasm; brightness of GFP-tagged particles compared with 3myeGFP and Ent2-3myeGFP (monomers) or with wild-type Ede1; average of all particles

B1: Bbc1 (natural protein, S. cerevisiae, UniProt P47068 1-1157, looked up)
chain: MSEPEVPFKVVAQFPYKSDYEDDLNFEKDQEIIVTSVEDAEWYFGEYQDSNGDVIEGIFPKSFVAVQGSEVGKEAESSPNTGSTEQRTIQPEVEQKDLPEPISPETKKETLSGPVPVPAATVPVPAATVPVPAATAVSAQVQHDSSSGNGERKVPMDSPKLKARLSMFNQDITEQVPLPKSTHLDLENIPVKKTIVADAPKYYVPPGIPTNDTSNLERKKSLKENEKKIVPEPINRAQVESGRIETENDQLKKDLPQMSLKERIALLQEQQRLQAAREEELLRKKAKLEQEHERSAVNKNEPYTETEEAEENEKTEPKPEFTPETEHNEEPQMELLAHKEITKTSREADEGTNDIEKEQFLDEYTKENQKVEESQADEARGENVAEESEIGYGHEDREGDNDEEKEEEDSEENRRAALRERMAKLSGASRFGAPVGFNPFGMASGVGNKPSEEPKKKQHKEKEEEEPEQLQELPRAIPVMPFVDPSSNPFFRKSNLSEKNQPTETKTLDPHATTEHEQKQEHGTHAYHNLAAVDNAHPEYSDHDSDEDTDDHEFEDANDGLRKHSMVEQAFQIGNNESENVNSGEKIYPQEPPISHRTAEVSHDIENSSQNTTGNVLPVSSPQTRVARNGSINSLTKSISGENRRKSINEYHDTVSTNSSALTETAQDISMAAPAAPVLSKVSHPEDKVPPHPVPSAPSAPPVPSAPSVPSAPPVPPAPPALSAPSVPPVPPVPPVSSAPPALSAPSIPPVPPTPPAPPAPPAPLALPKHNEVEEHVKSSAPLPPVSEEYHPMPNTAPPLPRAPPVPPATFEFDSEPTATHSHTAPSPPPHQNVTASTPSMMSTQQRVPTSVLSGAEKESRTLPPHVPSLTNRPVDSFHESDTTPKVASIRRSTTHDVGEISNNVKIEFNAQERWWINKSAPPAISNLKLNFLMEIDDHFISKRLHQKWVVRDFYFLFENYSQLRFSLTFNSTSPEKTVTTLQERFPSPVETQSARILDEYAQRFNAKVVEKSHSLINSHIGAKNFVSQIVSEFKDEVIQPIGARTFGATILSYKPEEGIEQLMKSLQKIKPGDILVIRKAKFEAHKKIGKNEIINVGMDSAAPYSSVVTDYDFTKNKFRVIENHEGKIIQNSYKLSHMKSGKLKVFRIVARGYVGW
notes: Bbc1, S. cerevisiae; also called Bbc1-3myeGFP; Bbc1-3mCherry; source: chromosomally tagged at the endogenous locus, in the cytoplasm of living S. cerevisiae cells
- Kd [1]: 115 nM

B2: ede1Δ591–1381 (myeGFP / mCherry fusions) (domain or fragment, S. cerevisiae, UniProt P34216 1-590, looked up)
chain: MASITFRTPLSSQEQAFYNQKFHQLDTEDLGVVTGEAVRPLFASSGLPGQLLSQVWATVDIDNKGFLNLNEFSAALRMIAQLQNAPNQPISAALYESTPTQLASFSINQNPAPMQSGSATGNTNNTDIPALSSNDIAKFSQLFDRTAKGAQTVAGDKAKDIFLKARLPNQTLGEIWALCDRDASGVLDKSEFIMAMYLIQLCMSHHPSMNTPPAVLPTQLWDSIRLEPVVVNQPNRTTPLSANSTGVSSLTRHSTISRLSTGAFSNAASDWSLSFEKKQQFDAIFDSLDKQHAGSLSSAVLVPFFLSSRLNQETLATIWDLADIHNNAEFTKLEFAIAMFLIQKKNAGVELPDVIPNELLQSPALGLYPPNPLPQQQSAPQIAIPSRASKPSLQDMPHQVSAPAVNTQPTVPQVLPQNSNNGSLNDLLALNPSFSSPSPTKAQTVVQNNTNNSFSYDNNNGQATLQQQQPQQPPPLTHSSSGLKKFTPTSNFGQSIIKEEPEEQEQLRESSDTFSAQPPPVPKHASSPVKRTASTTLPQVPNFSVFSMPAGAATSAATGAAVGAAVGAAALGASAFSRSSNNAFKNQDLF
notes: 1myeGFP fusion for FCS; diploid with one myeGFP and one mCherry allele for FCCS; Each copy carries one tag; also called ede1^Δ591–1391; source: S. cerevisiae, endogenously expressed truncation mutant, in living cells; not shown: myeGFP, C-terminal, kept; mCherry, C-terminal, kept
- Kd [2]: > 1000 nM

- Kd (Pan1): 539 nM
B3: Sla2 (natural protein, S. cerevisiae, UniProt P33338 1-968, looked up)
chain: MSRIDSDLQKALKKACSVEETAPKRKHVRACIVYTWDHQSSKAVFTTLKTLPLANDEVQLFKMLIVLHKIIQEGHPSALAEAIRDRDWIRSLGRVHSGGSSYSKLIREYVRYLVLKLDFHAHHRGFNNGTFEYEEYVSLVSVSDPDEGYETILDLMSLQDSLDEFSQIIFASIQSERRNTECKISALIPLIAESYGIYKFITSMLRAMHRQLNDAEGDAALQPLKERYELQHARLFEFYADCSSVKYLTTLVTIPKLPVDAPDVFLINDVDESKEIKFKKREPSVTPARTPARTPTPTPPVVAEPAISPRPVSQRTTSTPTGYLQTMPTGATTGMMIPTATGAANAIFPQATAQMQPDFWANQQAQFANEQNRLEQERVQQLQQQQAQQELFQQQLQKAQQDMMNMQLQQQNQHQNDLIALTNQYEKDQALLQQYDQRVQQLESEITTMDSTASKQLANKDEQLTALQDQLDVWERKYESLAKLYSQLRQEHLNLLPRFKKLQLKVNSAQESIQKKEQLEHKLKQKDLQMAELVKDRDRARLELERSINNAEADSAAATAAAETMTQDKMNPILDAILESGINTIQESVYNLDSPLSWSGPLTPPTFLLSLLESTSENATEFATSFNNLIVDGLAHGDQTEVIHCVSDFSTSMATLVTNSKAYAVTTLPQEQSDQILTLVKRCAREAQYFFEDLMSENLNQVGDEEKTDIVINANVDMQEKLQELSLAIEPLLNIQSVKSNKETNPHSELVATADKIVKSSEHLRVDVPKPLLSLALMIIDAVVALVKAAIQCQNEIATTTSIPLNQFYLKNSRWTEGLISAAKAVAGATNVLITTASKLITSEDNENTSPEQFIVASKEVAASTIQLVAASRVKTSIHSKAQDKLEHCSKDVTDACRSLGNHVMGMIEDDHSTSQQQQPLDFTSEHTLKTAEMEQQVEILKLEQSLSNARKRLGEIRRHAYYNQDDD
notes: Sla2, S. cerevisiae; also called Sla2-3myeGFP; Sla2-3mCherry; source: chromosomally tagged at the endogenous locus, in the cytoplasm of living S. cerevisiae cells
- Kd [1]: 133 nM

B4: Ede1 (Ede1-3myeGFP / Ede1-3mCherry) (natural protein, S. cerevisiae, UniProt P34216 1-1381, looked up)
chain: MASITFRTPLSSQEQAFYNQKFHQLDTEDLGVVTGEAVRPLFASSGLPGQLLSQVWATVDIDNKGFLNLNEFSAALRMIAQLQNAPNQPISAALYESTPTQLASFSINQNPAPMQSGSATGNTNNTDIPALSSNDIAKFSQLFDRTAKGAQTVAGDKAKDIFLKARLPNQTLGEIWALCDRDASGVLDKSEFIMAMYLIQLCMSHHPSMNTPPAVLPTQLWDSIRLEPVVVNQPNRTTPLSANSTGVSSLTRHSTISRLSTGAFSNAASDWSLSFEKKQQFDAIFDSLDKQHAGSLSSAVLVPFFLSSRLNQETLATIWDLADIHNNAEFTKLEFAIAMFLIQKKNAGVELPDVIPNELLQSPALGLYPPNPLPQQQSAPQIAIPSRASKPSLQDMPHQVSAPAVNTQPTVPQVLPQNSNNGSLNDLLALNPSFSSPSPTKAQTVVQNNTNNSFSYDNNNGQATLQQQQPQQPPPLTHSSSGLKKFTPTSNFGQSIIKEEPEEQEQLRESSDTFSAQPPPVPKHASSPVKRTASTTLPQVPNFSVFSMPAGAATSAATGAAVGAAVGAAALGASAFSRSSNNAFKNQDLFADGEASAQLSNATTEMANLSNQVNSLSKQASITNDKKSRATQELKRVTEMKNSIQIKLNNLRSTHDQNVKQTEQLEAQVLQVNKENETLAQQLAVSEANYHAAESKLNELTTDLQESQTKNAELKEQITNLNSMTASLQSQLNEKQQQVKQERSMVDVNSKQLELNQVTVANLQKEIDGLGEKISVYLTKQKELNDYQKTVEEQHAQLQAKYQDLSNKDTDLTDREKQLEERNRQIEEQENLYHQHVSKLQEMFDDLSQRKASFEKADQELKERNIEYANNVRELSERQMNLAMGQLPEDAKDIIAKSASNTDTTTKEATSRGNVHEDTVSKFVETTVENSNLNVNRVKDDEEKTERTESDVFDRDVPTLGSQSDSENANTNNGTQSGNETANPNLTETLSDRFDGDLNEYGIPRSQSLTSSVANNAPQSVRDDVELPETLEERDTINNTANRDNTGNLSHIPGEWEATPATASTDVLSNETTEVIEDGSTTKRANSNEDGESVSSIQESPKISAQPKAKTINEEFPPIQELHIDESDSSSSDDDEFEDTREIPSATVKTLQTPYNAQPTSSLEIHTEQVIKYPAPGTSPSHNEGNSKKASTNSILPVKDEFDDEFAGLEQAAVEEDNGADSESEFENVANAGSMEQFETIDHKDLDDELQMNAFTGTLTSSSNPTIPKPQVQQQSTSDPAQVSNDEWDEIFAGFGNSKAEPTKVATPSIPQQPIPLKNDPIVDASLSKGPIVNRGVATTPKSLAVEELSGMGFTEEEAHNALEKCNWDLEAATNFLLDSA
notes: Ede1, S. cerevisiae, homolog of mammalian Eps15; expressed from its own locus; also called wild-type Ede1; full-length Ede1; source: S. cerevisiae, chromosomally tagged at the endogenous locus, in living cells; not shown: 3myeGFP, C-terminal, kept; 3mCherry, C-terminal, kept
- molecular brightness per particle relative to 3myeGFP [3]: ~2.5 fold
- Kd [2]: 127 nM

— publication PMC4299599, “Quantification of cytosolic interactions identifies Ede1 oligomers as key organizers of endocytosis” (Molecular Systems Biology, 2014)
